Assay [1] has as its system Arabidopsis thaliana T1 plants. Briefly: Topramezone tolerance of transgenic Arabidopsis thaliana T1 plants (pesticide damage grade by bleached leaf area, score, resistance evaluation). It is filed as in vivo. Conditions: mutation combination, Table 8. An outline of the steps: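 Eighteen days after sowing, wild-type and HPPD-transgenic T1 Arabidopsis receive a topramezone spray at 1×, 2× or 4× field rate (25–100 g ai/ha) or water. Seven days later each plant is graded by its proportion of bleached leaf area.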

The test system of assay [2] is soybean T1 plants. In words: Herbicide tolerance of transgenic soybean T1 plants to topramezone. The assay is classed as in vivo. Conditions: topramezone 50 and 100 g ai/ha, 7 DAT, compared to control vector DBN11375NN and wild-type. The source says: The Arabidopsisthaliana T1 plants into which the AsHPPDm-F372A-02 nucleotide sequence was introduced, Arabidopsis thaliana T1 plants into which the AsHPPD-02 nucleotide sequence was introduced and wild-type Arabidopsisthaliana plants (18 days after sowing) were sprayed with topramezone at four different concentrations, i.e., 25 g ai/ha (one-fold field concentration, 1×), 50 g ai/ha (two-fold field concentration, 2×), 100 g ai/ha (four-fold field concentration, 4×) and 0 g ai/ha (water, 0×) to determine the tolerance of Arabidopsisthaliana to the herbicide. The degree of damage caused by the herbicide was measured for each plant according to the proportion of bleached leaf area (the proportion of bleached leaf area=bleached leaf area/total leaf area×100%) 7 days after spraying (7 DAT): the case where there is basically no bleached phenotype is defined as grade 0, the case where the proportion of bleached leaf area is less than 50% is defined as grade 1,the case where the proportion of bleached leaf area is more than 50% is defined as grade 2, and the case where the proportion of bleached leaf area is 100% grade is defined as grade 3.
The soybean T1 plants into which the AsHPPDm-F372A-02 nucleotide sequence was introduced, soybean T1 plants into which the ZmHPPDm-F372A-02 nucleotide sequence was introduced, soybean T1 plants into which the PfHPPDm-F372A-02 nucleotide sequence was introduced, soybean T1 plants into which the AsHPPDm-F372A-A110 nucleotide sequence was introduced, soybean T1 plants into which, the PfHPPDm-F372A-G413W nucleotide sequence was introduced, soybean T1 plants into which the control vector DBN11375NN was introduced and wild-type soybean plants (V3-V4 at seedling stage) were sprayed with topramezone at two different concentrations respectively, i.e. 50 g ai/ha (2-fold field concentration, 2 ×) and 100 g ai/ha (4-fold field concentration, 4 ×) to detect the herbicide tolerance of soybean plants. According to the method in point 6 of Example 1, after 7 days of spraying (7 DAT), the damage degree of each plant by the herbicide was statistically analyzed, and the scoring and resistance evaluation were carried out accordingly. The soybean plants into which the AsHPPDm-F372A-02 nucleotide sequence was introduced were of two strains in total (S1 and S2), the soybean plants into which the ZmHPPDm-F372A-02 nucleotide sequence was introduced were of two strains in total (S3 and S4), the soybean plants into which the PfHPPDm-F372A-02 nucleotide sequence was introduced were of two strains in total (S5 and S6), the soybean plants into which the AsHPPDm-F372A-Al 10 nucleotide sequence was introduced were of two strains in total (S7 and S8), the soybean plants into which the PfHPPDm-F372A-G413W nucleotide sequence was introduced were of two strains in total (S9 and S10), the soybean plants into which the control vector DBN11375NN nucleotide sequence was introduced were of one strain in total (S11), and the wild-type soybean plants were of one strain in total (CK1); and 8 plants were selected from each strain and detected.

B1: PfHPPDm-F372A-G413W: Pseudomonas fluorescens HPPD with F372A and G336W (position 413 of SEQ ID NO: 1), SEQ ID NO: 416 (protein)
chain: MADLYENPMGLMGFEFIEFASPTPGTLEPIFEIMGFTKVATHRSKNVHLYRQGEINLILNNEPNSIASYFAAEHGPSVCGMAFRVKDSQKAYNRALELGAQPIHIDTGPMELNLPAIKGIGGAPLYLIDRFGEGSSIYDIDFVYLEGVERNPVGAGLKVIDHLTHNVYRGRMVYWANFYEKLFNFREARYFDIKGEYTGLTSKAMSAPDGMIRIPLNEESSKGAGQIEEFLMQFNGEGIQHVAFLTDDLVKTWDALKKIGMRFMTAPPDTYYEMLEGRLPDHGEPVDQLQARGILLDGSSVEGDKRLLLQIASETLMGPVFFEFIQRKGDDGFGEWNFKALFESIERDQVRRGVLTAD
modifications: PfHPPDm-F372A-G413W Amino Acid Sequence
Turning to B1, in assay [1] (topramezone 25 g ai/ha), the “Grade 0 (number of plants)” value is 20, the “Grade 1 (number of plants)” value is recorded as 0, the “Grade 2 (number of plants)” value is reported as 0 and the “Grade 3 (number of plants)” value is listed as 0. In assay [1] (topramezone 25 g ai/ha), the “Resistance Grade” value is on record as “Highly resistant” and the score was found to be 0. In assay [1] (topramezone 100 g ai/ha), the “Grade 0 (number of plants)” value worked out at 20, the “Grade 1 (number of plants)” value is 0, the “Grade 2 (number of plants)” value is on record as 0 and the “Grade 3 (number of plants)” value is reported as 0. In assay [1] (topramezone 100 g ai/ha), the “Resistance Grade” value is “Highly resistant” and the score is on record as 0. Besides, the “tolerance to topramezone, in words” value in assay [2] is reported as “higher tolerance”.
